Sequences and labels used below:
B1: Hexokinase-2 (Homo sapiens), P52789 (parent)
chain: MIASHLLAYFFTELNHDQVQKVDQYLYHMRLSDETLLEISKRFRKEMEKGLGATTHPTAAVKMLPTFVRSTPDGTEHGEFLALDLGGTNFRVLWVKVTDNGLQKVEMENQIYAIPEDIMRGSGTQLFDHIAECLANFMDKLQIKDKKLPLGFTFSFPCHQTKLDESFLVSWTKGFKSSGVEGRDVVALIRKAIQRRGDFDIDIVAVVNDTVGTMMTCGYDDHNCEIGLIVGTGSNACYMEEMRHIDMVEGDEGRMCINMEWGAFGDDGSLNDIRTEFDQEIDMGSLNPGKQLFEKMISGMYMGELVRLILVKMAKEELLFGGKLSPELLNTGRFETKDISDIEGEKDGIRKAREVLMRLGLDPTQEDCVATHRICQIVSTRSASLCAATLAAVLQRIKENKGEERLRSTIGVDGSVYKKHPHFAKRLHKTVRRLVPGCDVRFLRSEDGSGKGAAMVTAVAYRLADQHRARQKTLEHLQLSHDQLLEVKRRMKVEMERGLSKETHASAPVKMLPTYVCATPDGTEKGDFLALDLGGTNFRVLLVRVRNGKWGGVEMHNKIYAIPQEVMHGTGDELFDHIVQCIADFLEYMGMKGVSLPLGFTFSFPCQQNSLDESILLKWTKGFKASGCEGEDVVTLLKEAIHRREEFDLDVVAVVNDTVGTMMTCGFEDPHCEVGLIVGTGSNACYMEEMRNVELVEGEEGRMCVNMEWGAFGDNGCLDDFRTEFDVAVDELSLNPGKQRFEKMISGMYLGEIVRNILIDFTKRGLLFRGRISERLKTRGIFETKFLSQIESDCLALLQVRAILQHLGLESTCDDSIIVKEVCTVVARRAAQLCGAGMAAVVDRIRENRGLDALKVTVGVDGTLYKLHPHFAKVMHETVKDLAPKCDVSFLQSEDGSGKGAALITAVACRIREAGQR
B2: Hexokinase-1 (Homo sapiens), P19367 (parent)
chain: MIAAQLLAYYFTELKDDQVKKIDKYLYAMRLSDETLIDIMTRFRKEMKNGLSRDFNPTATVKMLPTFVRSIPDGSEKGDFIALDLGGSSFRILRVQVNHEKNQNVHMESEVYDTPENIVHGSGSQLFDHVAECLGDFMEKRKIKDKKLPVGFTFSFPCQQSKIDEAILITWTKRFKASGVEGADVVKLLNKAIKKRGDYDANIVAVVNDTVGTMMTCGYDDQHCEVGLIIGTGTNACYMEELRHIDLVEGDEGRMCINTEWGAFGDDGSLEDIRTEFDREIDRGSLNPGKQLFEKMVSGMYLGELVRLILVKMAKEGLLFEGRITPELLTRGKFNTSDVSAIEKNKEGLHNAKEILTRLGVEPSDDDCVSVQHVCTIVSFRSANLVAATLGAILNRLRDNKGTPRLRTTVGVDGSLYKTHPQYSRRFHKTLRRLVPDSDVRFLLSESGSGKGAAMVTAVAYRLAEQHRQIEETLAHFHLTKDMLLEVKKRMRAEMELGLRKQTHNNAVVKMLPSFVRRTPDGTENGDFLALDLGGTNFRVLLVKIRSGKKRTVEMHNKIYAIPIEIMQGTGEELFDHIVSCISDFLDYMGIKGPRMPLGFTFSFPCQQTSLDAGILITWTKGFKATDCVGHDVVTLLRDAIKRREEFDLDVVAVVNDTVGTMMTCAYEEPTCEVGLIVGTGSNACYMEEMKNVEMVEGDQGQMCINMEWGAFGDNGCLDDIRTHYDRLVDEYSLNAGKQRYEKMISGMYLGEIVRNILIDFTKKGFLFRGQISETLKTRGIFETKFLSQIESDRLALLQVRAILQQLGLNSTCDDSILVKTVCGVVSRRAAQLCGAGMAAVVDKIRENRGLDRLNVTVGVDGTLYKLHPHFSRIMHQTVKELSPKCNVSFLLSEDGSGKGAALITAVGVRLRTEASS

The variants in the first experiment derive from B1. The note with it: with src_mouse Src.
Consider Y686F, for which the “effect of a mutation on the interaction” value is given as “disrupting interaction strength”.

Another experiment covers variants of B2. The note with it: with src_mouse Src.
Take Y27F: the “effect of a mutation on the interaction” value was “with no effect”.

Consider Y417F, for which the “effect of a mutation on the interaction” value is “with no effect”.

In the case of Y732F, the “effect of a mutation on the interaction” value was “disrupting interaction strength”.

The values are drawn from IntAct's records for PubMed 28054552.
